Consider one molecule from patent US20250249077A1, “NAMPT FOR WOUND-HEALING AND STIMULATING HAIR GROWTH AND/OR REGROWTH” (Innovative Surgical Regeneration Holdings, LLC, priority 2022, published 2025).

In test [1] the test system is nondiabetic wounds. The experiment in a line: Splinted full thickness excisional wound model, nondiabetic (wildtype) mice. The format is in vivo. As to conditions: versus control hydrogel. How it is done: (§1) Diabetic, aged diabetic, and nondiabetic mice were purchased from JAX labs. Bilateral, symmetric full thickness wounds (which recapitulate complete skin tissue loss) were generated on the murine dorsum using a biopsy punch; wounds were treated with the disclosed therapeutic or the control vehicle.
(§2) NAMPT hydrogel was administered on wounds, control hydrogel served as control.

Test [2] has as its system diabetic wounds. In words: Splinted full thickness excisional wound model, diabetic db/db mice. It is filed as in vivo. As to the method:
as §1, §2

Test [3] deals with hair follicles. In words: Hair growth after intradermal injection of NAMPT in the skin of mice. The format is in vivo. The text has this: The mean number of hair follicles per field in the NAMiPT group is 33.93. The mean number of hair follicles per field in the control group is 27.47. The difference between the number of hair follicles per field between the NAMPT group and control group is statistically significant (p-value 0.0097 by unpaired t-test (GraphPad Prism 9).

For test [4], the system named is diabetic wounds. In words: Single-cell RNA sequencing of NAMPT treated versus control diabetic wounds. The format is in vivo, mice. The source says:
Studies including single-cell RNA sequencing performed by the authors have elucidated the mechanism of action of the disclosed novel treatment on complete skin regeneration and prevention of scarring.
We performed gene ontology (GO) analysis on differentially expressed genes between the fibroblast clusters (clusters #0, #5, #10, and #12) to determine whether specific functions could be assigned to the different fibroblast subpopulations (FIG. 2A-E). […] Next, we performed gene ontology analysis on differentially expressed genes between NAMPT treated versus control Cluster #0 fibroblasts.
We utilized the CellChat package to infer cell-cell communication in NAMPT treated diabetic wounds versus control diabetic wounds.
Impaired cellular proliferation in diabetic wounds leads to delayed granulation tissue formation and delayed reepithelialization. We utilized the Tricycle package40 to determine the impact of NAMPT on cell cycle of diabetic wounds.

The mark [5] stands for this setting: pseudotime lineage analysis, relative to control wounds.

“Also recorded” adds a separate entry of the source.

B1: NAMPT: Nicotinamide phosphoribosyltransferase protein, rate-limiting enzyme of the salvage NAD synthesis pathway; human sequence SEQ ID NO: 1; recombinant (protein, listed as Homo sapiens)
chain: MNPAAEAEFNILLATDSYKVTHYKQYPPNTSKVYSYFECREKKTENSKLRKVKYEETVFYGLQYILNKYLKGKVVTKEKIQEAKDVYKEHFQDDVFNEKGWNYILEKYDGHLPIEIKAVPEGFVIPRGNVLFTVENTDPECYWLTNWIETILVQSWYPITVATNSREQKKILAKYLLETSGNLDGLEYKLHDFGYRGVSSQETAGIGASAHLVNFKGTDTVAGLALIKKYYGTKDPVPGYSVPAAEHSTITAWGKDHEKDAFEHIVTQFSSVPVSVVSDSYDIYNACEKIWGEDLRHLIVSRSTQAPLIIRPDSGNPLDTVLKVLEILGKKFPVTENSKGYKLLPPYLRVIQGDGVDINTLQEIVEGMKQKMWSIENIAFGSGGGLLQKLTRDLLNCSFKCSYVVTNGLGINVFKDPVADPNKRSKKGRLSLHRTPAGNFVTLEEGKGDLEEYGQDLLHTVFKNGKVTKSYSFDEIRKNAQLNIELEAAHH
For B1, the skin regeneration result in test [1] was “sufficient to regenerate all tissues of the skin”. In addition, in test [2] (diabetic wounds, versus control hydrogel), the skin regeneration result is “sufficient to regenerate all tissues of the skin”. Moreover, the “percentage of area staining positive for Keratin15” value in test [2] (immunohistochemistry, diabetic wounds vs control, n=3, p=0.0166) is listed as “significantly increases”. Besides, the “percentage of area staining positive for b-catenin” value in test [2] (immunohistochemistry, diabetic wounds vs control, n=3, p=0.0332) is “significantly increases”. Moreover, the “mean number of hair follicles per field” value in test [3] (15 fields at 200× magnification, counted manually, unblinded) was 33.93. For the same molecule, the “Difference between means (B − A) ± SEM, hair follicles per field” value in test [3] (NAMPT group minus control group, unpaired t test) worked out at 6.467 ± 2.329. Also, the “hair follicles, histological analysis versus control” value in test [3] (NAMPT treated mice skin versus control) was “significant increase; also recorded: increased hair follicles”. The hair growth entry in test [3] (intradermal injection every 48 hours, compared to control) was “promoted hair growth visibly by 10 and 14 days”. Besides, the Wnt-Fzd ligand-receptor interactions result in test [4] (CellChat analysis) is “increased diversity, number, and strength”. For the same molecule, the “gene expression for collagens Col1a1, Col1a2, Col3a1, Col5a2, Col6a1” value in test [4] (Cluster #0 fibroblasts, treated vs control) is “significantly increased”. Also, the “epidermal stem cell markers Krt5, Krt14, Krt15, Trp63, Itgb1, Itga6” value in test [4] (Cluster #1 undifferentiated epidermal cells, compared to controls) was “significantly higher”. The “KEGG oxidative phosphorylation, fatty acid metabolism, TCA cycle, mTOR signaling and pyruvate metabolism pathways” value in test [4] (KEGG pathway analysis) is recorded as “significantly enhances”. The “proportion of cells in the S phase, G2/M phase, and M phase” value in test [4] (Tricycle cell cycle analysis, compared to controls) is listed as “increases”. In addition, in test [4] (epidermal stem cell populations), the Hgf signaling entry is “promoted”. For the same molecule, the “Krt79+ and Krt6a/Krt6b+ cells” value in test [4] (pseudotime lineage analysis, relative to control treated wounds) is “enriched”. In addition, in test [4] (setting [5]), the “Krt77+ cells” value is listed as “increased” and the “Pparg+/Fasn+ cells” value is recorded as “enriched”. Besides, in test [4] (treated diabetic wounds), the “immune pathways (MHC-II, CD6, ALCAM, VISTA, MHC-I, CD80)” value is “upregulated”; the “pro-inflammatory pathways, including TNF and IL1” value is “activation”.
